Measurements reported in US7799901B2, “Modulators of the function of FAS receptors and other proteins” (Yeda Research and Development Co. Ltd., priority 1995, dated 2010).

T1: GST-MORT-1 fusion protein (Homo sapiens, UniProt Q13158)
T1 construct: made in house
T1 sequence (Q13158 1-208): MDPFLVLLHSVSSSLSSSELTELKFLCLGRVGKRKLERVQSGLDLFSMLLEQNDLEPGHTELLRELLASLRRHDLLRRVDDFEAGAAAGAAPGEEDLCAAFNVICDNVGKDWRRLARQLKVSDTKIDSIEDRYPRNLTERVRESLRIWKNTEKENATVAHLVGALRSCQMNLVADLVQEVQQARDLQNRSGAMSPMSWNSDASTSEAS


Assays:
[1] = system: p55-R-induced cytotoxicity in 293-EBNA cells; assay: Death of 293-EBNA cells induced by over-expression of p55-R; type: cell-based, human; settings: co-transfection
Protocol: In brief, 293-EBNA cells, MCF7 human breast carcinoma cells and HeLa HtTA-1 cells were grown in Dulbecco's modified Eagle's minimal essential medium supplemented with 10% fetal calf serum, nonessential amino acids, 100 U/ml penicillin and 100 μg/ml streptomycin. Cell tissue culture dishes (5×10^5 293-EBNA cells, 3×10^5 s MCF7 cells or 3×10^5 HeLa cells in 6-cm dishes) were transiently transfected, using the calcium phosphate precipitation method, with the cDNAs of the indicated proteins together with the β-galactosidase expression vector. In the experiments presented in FIGS. 14A-D and 15, each dish was transfected with 3.5 μg of the indicated MACH construct and 1.5 μg of pSV-β-gal. In the experiments presented in FIGS. 16A-D and 17-19, each dish was transfected with 2.5 μg of the indicated MACH or MORT1 construct (or, as control, empty vector) and 1.5 μg of pSV-β-gal. The cells were rinsed 6 to 10 h after transfection. The 293-EBNA and MCF7 cells were incubated for a further 18 h without additional treatment. […] The extent of cell death at the end of the incubation periods was assessed by determination of β-galactosidase expression, as described by Kumar et al, 1994. […]
In particular, FIGS. 16A-D show morphology of 293-EBNA cells in which cell death was induced by transient expression of a chimera comprised of the extracellular domain of the p55-R (amino acids 1-168) fused to the transmembrane and intracellular domains of Fas/APO1 (amino acids 153-319) (p55-Fas chimera) (FIGS. 16A and 16B), or by expression of the p55-R (FIGS. 16C and 16D), and of cells that were protected from these cytotoxic effects by their simultaneous transfection with MACHα1 (C360S) (FIGS. 16B and 16D). […] FIG. 17 illustrates the quantification of death induced in 293-EBNA cells by their transfection with p55-Fas chimera or with p55-R, together with an empty vector, a MORT1 deletion mutant lacking the MACH-binding region (MORT1 (92-208)), or MACHα molecules containing a nonfunctional CED3/ICE region. […] Data are from at least two independent experiments and are expressed as in FIGS. 14A-F and 15.

[2] = biological target: T1, GST-MORT-1 fusion protein; assay: In vitro binding to GST-MORT-1 on glutathione-agarose beads
Text: It has been shown also to contribute to, though not to suffice in, the self association of MORT-1 (see Example 1). […] To further assess the involvement of the MORT modules in these interactions, deletion mutants of MACHβ1, fused with the FLAG octapeptide (FLAG-MACHβ1), were expressed in HeLa cells and assessed for their binding in vitro to bacterial-produced […] fusion protein (GST-MORT-1). […] FIGS. 9A and 9B show the results (autoradiograms) of the in vitro interaction of MACHβ1 and its deletion mutants with MORT-1. Briefly, 35 [S] metabolically labeled MACHβ1, MACHβ1 fused at its N-terminus to the FLAG octapeptide (FLAG-MACHβ1), C-terminus truncation mutants of FLAG-MACHβ1, and, as a control, luciferase, were produced in transfected HeLa cells. Expression was done using a tetracycline-controlled expression vector, in a HeLa cell clone (HtTA-1) that expresses a tetracycline-controlled transactivator.
The antibodies used are as follows: Rabbit anti-MACHβ1 and anti-MORT1 antisera were raised against GST-MACHβ1 and GST-MORT1 fusion proteins. Mouse monoclonal antibodies against the FLAG octapeptide (M2) and against FAS/APO1 (CH11, Yonehara et al, 1989) were purchased from Eastman Kodak and Oncor (Gaithersburg, Md.) respectively. […]

Molecule | protection against p55-R-induced cytotoxicity [1] | in vitro binding to GST-MORT-1 fusion protein [2]
MACHα1 (C360S): MACHα1 mutant in which the catalytic cysteine Cys360 is replaced by Ser (protein) MDFSRNLYDIGEQLDSEDLASLKFLSLDYIPQRKQEPIKDALMLFQRLQEKRMLEESNLSFLKELLFRINRLDLLITYLNTRKEEMERELQTPGRAQISAYRVMLYQISEEVSRSELRSFKFLLQEEISKCKLDDDMNLLDIFIEMEKRVILGEGKLDILKRVCAQINKSLLKIINDYEEFSKERSSSLEGSPDEFSNGEELCGVMTISDSPREQDSESQTLDKVYQMKSKPRGYCLIINNHNFAKAREKVPKLHSIRDRNGTHLDAGALTTTFEELHFEIKPHDDCTVEQIYEILKIYQLMDHSNMDCFICCILSHGDKGIIYGTDGQEAPIYELTSQFTGLKCPSLAGKPKVFFIQASQGDNYQKGIPVETDSEEQPYLEMDLSSPQTRYIPDEADFLLGMATVNNCVSYRNPAEGTWYIQSLCQSLRERCPRGDDILTILTEVNYEVSNKDDKKNMGKQMPQPTFTLRKKLVFPSD | protected | 
MACHβ1: MACH isoform, cDNA SEQ ID NO: 4, amino acid SEQ ID NO: 5; lacks the CED3/ICE homology region (protein) MDFSRNLYDIGEQLDSEDLASLKFLSLDYIPQRKQEPIKDALMLFQRLQEKRMLEESNLSFLKELLFRINRLDLLITYLNTRKEEMERELQTPGRAQISAYRVMLYQISEEVSRSELRSFKFLLQEEISKCKLDDDMNLLDIFIEMEKRVILGEGKLDILKRVCAQINKSLLKIINDYEEFSKERSSSLEGSPDEFSNDFGQSLPNEKQTSGILSDHQQSQFCKSTGESAQTSQH |  | able to bind
